In the nanobody polyreactivity screen of Harvey et al. (2022):

Assay: yeast display, Sf9 membrane polyspecificity reagent, FACS + sequencing; frameworks hold sequencing errors
Procedure, shortened: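 Galactose-induced (36–48 hours) yeast carrying a synthetic nanobody display library were exposed to 10% biotinylated, detergent-solubilized Sf9 membrane reagent at 4 °C for 1 hour. FACS followed streptavidin microbead enrichment, using low and high (top ~1%) gates for expression (anti-HA) and reagent binding (streptavidin). Colony PCR, MiSeq 2 × 250 sequencing and CDR-length filtering followed. Labels for polyreactivity reflect the gate of origin.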

Row | Sequence | polyreactivity (PSR sort gate)
1 | QVQLEESGGGLVQAGGSLRLSCAASGRIFGYYPMGWYRQATGKERELVAGISRSGGSTYYADSVKGRFTISRDNAKNTVFLQMISLKPEDTAVYYCAKRVSYYGRYRPYDYWGQGTQVTVSS | high polyreactivity
2 | QVQLEESGGGLVQAGGSLRLSCAASGRIFPYYPMGWYRQAPGKETELVATISGGGSTYYADSVKGRFTISRDNAKNTFYLQMNSLKPEDTAVYYCSARSWLRWASTPQWYRYEYWGQGTQVTVSS | low polyreactivity
3 | QVQLEESGGGLVQAGGSLRLSCAASGRIFRPNAMGWYRQAPGKERELVAAISSGGSTYYADSVKGRFTISRDNAKNTVYLQMNSLKPEDTAVYYCAARSRGYDIRYGYWGQGTQVTVSS | high polyreactivity
4 | QVQLEESGGGLVQAGGSLRLSCAASGRIFSSYAMGWYRQAPGKERELVAAISSSGGRTYYADSVKGRFTISRDNAKNSVYLQMNSLKPEDTAVYYCARVTTGGYEYWGQGTQVTVSS | high polyreactivity
5 | QVQLEESGGGLVQAGGSLRLSCAASGRIFWWYGMGWYREAPGKERELVASITYSGVSTYYADSVKGRFTISRDNAKNTVYLQMNSLTPEDTAVYYCAADRSRYFSYKYDYWGQGTQVTVSS | high polyreactivity
6 | QVQLEESGGGLVQAGGSLRLSCAASGRIFYRYAMGWYRQAPGKERELVAAISWSGGSTNYADSVRGRFTISRDNAKNTVYLQMNSLKPEDTAVYYCAAKYRSIRESATYYYWGQGTQVTVSS | high polyreactivity
7 | QVQLEESGGGLVQAGGSLRLSCAASGRIHVYTMGWSRQAPGKERELVATITWSGTSTNYADSVKGRFTISRDNAKNTVYFQMNSLKPEDTAVYYCAADISGVLSVSNVRGFDYWGQGTQVTVSS | low polyreactivity
8 | QVQLEESGGGLVQAGGSLRLSCAASGRNFTYNTMGWYRQAPGKERELVAAITSGGSTYYADSVKGRFTSSRDNAKNTVYLQMNSLKPEDTAVYYCAKRSWAYTDYFVSEYYWGQGTQVTVSS | high polyreactivity
9 | QVQLEESGGGLVQAGGSLRLSCAASGRNFYYNAIGWYRQAPGKERELVATITRAGGTYYADSVKGRFTISRDNAKNTVYLQMNSLKPEDTAVYYCAKRHPIVDDYKGDYWGQGTQVTVSS | low polyreactivity
10 | QVQLEESGGGLVQAGGSLRLSCAASGRNISRNAMGGYRQPPGKERELVAAITQSGTSTYYADSVKGRFTLSRDNAKNTVYLQMKSLIPEDTAVYYCNAYRQYRYDYWGQGSQVTVSS | low polyreactivity
11 | QVQLEESGGGLVQAGGSLRLSCAASGRTFKLNAMGWYRQAPGKERELVAAISRNGGSTYYADSVKGRFTISRDNAKNTVYLQMNSLKPEDTAVYYCAAVRHGVSLAGYYWGQGTQVTVSS | high polyreactivity
12 | QVQLEESGGGLVQAGGSLRLSCAASGRTFYIYVMGWYRPAPGKERELVASITKRVGGTFYADSVKGRFTISGDNAKNTVYLQMNSLKPEDTAVYYCNARARKSIRVGGYNYWGQGTQVTVSS | high polyreactivity
13 | QVQLEESGGGLVQAGGSLRLSCAASGRTFYPNAMGWYRQAPGKERELVAAITRSGGRTYYADSVKGRFTISRDNAYYTVYLQMNSLKPEDSAVYYCNADLYYLYYKYEYWGQGTQVTVSS | low polyreactivity
14 | QVQLEESGGGLVQAGGSLRLSCAASGSIFFSYAMGWYRQAPGKERELVAAISSGGSTYYADSVKGRFTISRDNAKNTVYLQMNSLKPEDTAVYYCAARGYRLVPVDFYYWGQGTQVTVSS | low polyreactivity
15 | QVQLEESGGGLVQAGGSLRLSCAASGSIFGFYMGWDRQAPRKEREMVAAISGSGGNTYYADSVKGRFTISRDNAKNTVYLQMNSQKPEDNAVYYCAARGYVWNIGRYYWGQGTQVTVSW | high polyreactivity
16 | QVQLEESGGGLVQAGGSLRLSCAASGSIFHYYTMGWYRQAPGKERELVAAITSSGGSTYYADSVKGRFTISRDNAKNTVYLQMNSLKPEDTAVYYCNKVRYRGYLYVPIYVGYNYWGQGTQVTVSS | high polyreactivity
17 | QVQLEESGGGLVQAGGSLRLSCAASGSIFNRYAMGWYRQAPGKEWELVAAISRSGGRTYYADSVKGRFTISRDNAKNTVYLQMNSLKPEDTAVYYCAADKYYRQHEYDYLGQGTQVTVSS | high polyreactivity
18 | QVQLEESGGGLVQAGGSLRLSCAASGSIFPHYAMRWNRQAPGKERELVAAISRSGTSTYYADSVKGRFPISRDNAKNTVYLQMNSLKPEHTAVYYCNAYQVYTRTYGYWGQGTQVTVSS | high polyreactivity
19 | QVQLEESGGGLVQAGGSLRLSCAASGSIFRKYAMVSYRQAPGKERELVAAIRSSGGSTYYADSVKGRFTISRDNANNTVYLQMNSLKPEDTAVYYCAARYYRPSRYDYWGQGTQVTVSS | high polyreactivity
20 | QVQLEESGGGLVQAGGSLRLSCAASGSIFRRNVMGWYRQAPGKERELVAAISWSGDRTYYADSVKGRFTISRDNAKNTVYLQMNSLKPVGTAVYYCAAANASPRRYGQYDYWGQGTQVTVSS | high polyreactivity
21 | QVQLEESGGGLVQAGGSLRLSCAASGSIFSPNAMGWYRQAPGKERELVAAIDTRDGTTYYADSVKGRFTISRDNAKNTVYLQMNSLKPEDTAVYYCAADQLVGERDYWGQGTQVTVSS | low polyreactivity
22 | QVQLEESGGGLVQAGGSLRLSCAASGSIFSRNAMGLYRQAPGTERELVAVITRSGSTNYADSVKGRFTISRDNAKNTVYLQKKSLTPQDTAVYYCNADQDAYYLVSIATYDYWGQGTQVTVSS | low polyreactivity

Row | Sequence | polyreactivity (PSR sort gate)
23 | QVQLEESGGGLVQAGGSLRLSCAASGSIFVTNVMGWYRQAPGKERELVAVINSGGRTYYADSVKGRFTISRDNAKNTVYLQMNSLKPEDTAVYYCAKDSWSSYPSLYPEFDYWGQGTQVTVSS | low polyreactivity
24 | QVQLEESGGGLVQAGGSLRLSCAASGSIIWSYAMGWYRQAPGKERELVAVINWSGGSTYYADSVKGRFTISRDNAKNTVYLQMNSLKPEDTAVYYCNKDLGPTKRPFTFDYWGQGTQVTVSS | low polyreactivity
25 | QVQLEESGGGLVQAGGSLRLSCAASGSISYYYGMGWYRQAPGKERELVAAISTRGGSTYYADSVKGRFTISRDNAKNTVYLQMNSLKPEDTAVYYCNKVYYKRFYYWGQGTQVTVSS | high polyreactivity
26 | QVQLEESGGGLVQAGGSLRLSCAASGSIYTYTMGWYRQAPGKERELVAAISWNGGRTYYADSVKGRFTISRDNAKNTVYLQMNSLKPEDTAVYYCNAAISYSYGYWGQGTQVTVSS | high polyreactivity
27 | QVQLEESGGGLVQAGGSLRLSCAASGSTFDRYGMGWYRQAHWKERELVAAINSGDITNYADSVKGRFTISRDNAKNTVYLQMNSLKPEDTAVYYCAATQSRYYSDDPYYYWGQGTQVTVSS | low polyreactivity
28 | QVQLEESGGGLVQAGGSLRLSCAASGSTFKYYAMGWYRQAPGKERELVAAISWSGGSTYYADSVKGRFTISRDNAKNTVYLQMNRLKPEDTAVYYCNKLIYDEDEYWGQGTQVTVSS | high polyreactivity
29 | QVQLEESGGGLVQAGGSLRLSCAASGSTFLRYAIGWYRQAPGKEMELVAAITASGGSTFYADSVKGRFTISRDYAKNTVYLQMNSLKPEDTPVYYCAADVSYIGKYSHDLWIYGYYYWGQGTQVTVSS | low polyreactivity
30 | QVQLEESGGGLVQAGGSLRLSCAASGSTFSRYAMGWYRQAPGKERELVAAISSSGGGTYYADSVKGRFTISRDNAKNTVYLQMNSLKPEDTAVYYCAAKRVHGATGYWGQGTQVTVSS | high polyreactivity
31 | QVQLEESGGGLVQAGGSLRLSCAASGSTFSSNVMGWYRQAPGKERELVAAITGSGSRTYYADSVKGRFTISRDNAKNTVYLQMNSLKPEDTAVYYCNTKGRSRETYGYDYWGQGTQVTVSS | high polyreactivity
32 | QVQLEESGGGLVQAGGSLRLSCAASGSTFSYYAMGWYRQAPGKERELVAAITYSVGSTYYADSVKGRFTISRDNAKNTVYLQMNSLKPEDTAVYYCNKRYYYSRANYPYDYWGQGTQVTVSS | low polyreactivity
33 | QVQLEESGGGLVQAGGSLRLSCAASGSTFVYNPMGWYRQAPGKETELVAVITYRGGRTYSADSVKGRFTISRDYAKNSVYLQMNSLKPEDTAVYYCAKRVYGSKVRGYDYWGQGTQVTVSS | high polyreactivity
34 | QVQLEESGGGLVQAGGSLRLSCAASGSTFYSYVMGWYRQAPGKERELVAAISSIGGSTYYADSVKGRFTISRDNAKNTVYLQMNSLKPEDTAVYYCAAEPPGSTYEGGYWGQGTQVTVSS | low polyreactivity
35 | QVQLEESGGGLVQAGGSLRLSCAASGSTIDYYTMGWYRQAPGKERELVAAISSSGGSTYYADSVKGRFTISRDNAKNTVYLQMNSLKPEDTAVYYCNSDSWYPDHFSYYGPYDYWGQGTQVTVSS | low polyreactivity
36 | QVQLEESGGGLVQAGGSLRLSCAASGSTIHSYAMGWYRHAPGKERELVAAITTTGTRTYYADSVKGRFTISRDNAKNTVYLQMNSLKPEDTAVYYCNAQRLQAHRTSRRYGFWGQGTQVTVSS | high polyreactivity
37 | QVQLEESGGGLVQAGGSLRLSCAASGSTLNRYPMGWNRHATGKERELVATIRWSGGSTYYADSVKPRFTISRYNEKHTVDLQMNSLKAEDTAVYYCAPDRYYYRGRYYGYTREFDYWGQGTHVTVSS | high polyreactivity
38 | QVQLEESGGGLVQAGGSLRLSCAASGSTYYYYAMGWYRQAPGKERELVAAISRSGITYYADSVKGRFTISRDNAKNTVYLQMNSLKPEDTAVYYCAAGRRFDQSMYYWGQGTQVTVSS | high polyreactivity
39 | QVQLEESGGGLVQAGGSLRLSCAASGYTFSFYAMGWYRQAPGKERELVAAISRSGGSTYYADSVKGRFTISRDNAKNTVYLQMNSLKPEDTAVYYCAARWPGAYHEYGYWGQGTQVTVSS | high polyreactivity
40 | QVQLEESGGGLVQAGGSLRLSCAAYGSIFRFYAMGRYRQAPGKERQFVASITGTGGSTYYADSVKGRFTISRDNAKNTVYLQMNSLKPEDTAVYYCAKTQYSFPRLGYDYWGQGTQVTVSS | high polyreactivity
41 | QVQLEESGGGLVQAGGSLRLSCAAYGSIFYKNAMGWYRQAPGKERELVAAITYSGGSTYYADSVKGRFTISRDNAKKTVYLQMNSLKPEDTAVYYCAADIGVYGERREEEYDYWGQGTQVTVSS | low polyreactivity
42 | QVQLEESGGGLVQAGGSLRLSCAPSGLTFGGNAMGWYRQAPGKERELVAAISSGGSTNYADSVKGRFTISRDNAKNTDFLNMNSLKPEDTAVYYCAARDRPGNYFTEYGYWGQGTQVTVSS | low polyreactivity
43 | QVQLEESGGGLVQAGGSLRLSCASSGRIFQVNTMGWYRQAPGKESELVAAISASVGSTYYADSVKGRFTISRDNAKNTVYLQMNILKPEDTAVYYCAKSLGYSVVRTLSPTGFYYWGQGTQVTVSS | low polyreactivity
